The target in this assay is HLA-B*07 (Homo sapiens, UniProt P01889). Kind of assay: MHC binding assay (UV-ligand exchange, ELISA of stabilized MHC complexes). The note with it: peptide exchange yield on HLA-B*07, UV-ligand exchange. The text has this: Candidate peptides for T cell based therapies according to the present invention were further tested for their MHC binding capacity (affinity). The individual peptide-MHC complexes were produced by UV-ligand exchange, where a UV-sensitive peptide is cleaved upon UV-irradiation and exchanged with the peptide of interest as analyzed. Only peptide candidates that can effectively bind and stabilize the peptide-receptive MHC molecules prevent dissociation of the MHC complexes. To determine the yield of the exchange reaction, an ELISA was performed based on the detection of the light chain (β2m) of stabilized MHC complexes. The assay was performed as generally described in Rodenko et al. (Rodenko et al., 2006)
96 well MAXISorp plates (NUNC) were coated over night with 2 ug/ml streptavidin in PBS at room temperature, washed 4× and blocked for 1 h at 37° C. in 2% BSA containing blocking buffer. […] Peptide-MHC monomers of the UV-exchange reaction were diluted 100-fold in blocking buffer. Samples were incubated for 1 h at 37° C., washed four times, incubated with 2 ug/ml HRP conjugated anti-[…] for 1 h at 37° C., washed again and detected with TMB solution that is stopped with […]. Absorption was measured at 450 nm. Candidate peptides that show a high exchange yield (preferably higher than 50%, most preferred higher than 75%) are generally preferred for a generation and production of antibodies or fragments thereof, and/or T cell receptors or fragments thereof, as they show sufficient avidity to the MHC molecules and prevent dissociation of the MHC complexes.
(In general: ELISA stands for enzyme-linked immunosorbent assay.)
For “84 (MPMQDIKMI; listed as Homo sapiens) [compound 84]”, the Peptide exchange entry was “+++ (>50 = +++)”. As for “85 (MPMQDIKMILKM; listed as Homo sapiens) [compound 85]”, the Peptide exchange entry is given as “+++ (>50 = +++)”. Under “86 (ALLLRGVTL; listed as Homo sapiens) [compound 86]” stands “++ (>20% = ++)”; under “87 (APVGGNVTSSF; listed as Homo sapiens) [compound 87]”, “+++ (>50 = +++)”. Then “88 (KPSAVKDSIY; listed as Homo sapiens) [compound 88]”, with “++ (>20% = ++)”. Then “89 (FLIPRAGWLAGL; listed as Homo sapiens) [compound 89]”, with “++ (>20% = ++)”; and “91 (FPRLVGPDFF; listed as Homo sapiens) [compound 91]”, with “++++ (>75% = ++++)”; and “92 (TSPLPPTV; listed as Homo sapiens) [compound 92]”, with “+++ (>50 = +++)”. Regarding “93 (SVAIAHGVF; listed as Homo sapiens) [compound 93]”, the Peptide exchange entry is “++++ (>75% = ++++)”. Turning to “94 (LPMSKRQEY; listed as Homo sapiens) [compound 94]”, the Peptide exchange entry is listed as “+++ (>50 = +++)”. Take “95 (RTKEEINEL; listed as Homo sapiens) [compound 95]”: the Peptide exchange result was “++ (>20% = ++)”. Then “96 (QPSLVQAIF; listed as Homo sapiens) [compound 96]”, with “++++ (>75% = ++++)”; and “98 (FPCSALLACF; listed as Homo sapiens) [compound 98]”, with “++++ (>75% = ++++)”.

Take “99 (MPVSAFTVI; listed as Homo sapiens) [compound 99]”: the Peptide exchange result is listed as “++++ (>75% = ++++)”.

Turning to “101 (KPGLPGLK; listed as Homo sapiens) [compound 101]”, the Peptide exchange entry is “+ (>10% = +)”. Then “102 (MAGPAIHTAPM; listed as Homo sapiens) [compound 102]”, with “++ (>20% = ++)”; and “103 (REPIMKADML; listed as Homo sapiens) [compound 103]”, with “++ (>20% = ++)”; and “104 (RPLPNSVIHV; listed as Homo sapiens) [compound 104]”, with “+++ (>50 = +++)”. Take “105 (RPRYETGVCA; listed as Homo sapiens) [compound 105]”: the Peptide exchange entry is “++++ (>75% = ++++)”. Under “106 (APFHIDRLF; listed as Homo sapiens) [compound 106]” stands “+++ (>50 = +++)”; under “108 (APRGSPPI; listed as Homo sapiens) [compound 108]”, “+++ (>50 = +++)”; under “109 (LPRALMRST; listed as Homo sapiens) [compound 109]”, “+++ (>50 = +++)”. Then “110 (YPSSPASAV; listed as Homo sapiens) [compound 110]”, with “++++ (>75% = ++++)”; and “111 (YPLQQTNVY; listed as Homo sapiens) [compound 111]”, with “+ (>10% = +)”; and “112 (YPSPLNKHSF; listed as Homo sapiens) [compound 112]”, with “+++ (>50 = +++)”. Then “113 (KPHLDRRGAVI; listed as Homo sapiens) [compound 113]”, with “++++ (>75% = ++++)”; and “114 (FVPPSGPSNPM; listed as Homo sapiens) [compound 114]”, with “++ (>20% = ++)”; and “115 (KTKSLAQQL; listed as Homo sapiens) [compound 115]”, with “+++ (>50 = +++)”. As for “117 (IPHQRSSL; listed as Homo sapiens) [compound 117]”, the Peptide exchange entry was “++++ (>75% = ++++)”. For the substance “118 (NPERHKPSF; listed as Homo sapiens) [compound 118]”, the Peptide exchange entry was “+++ (>50 = +++)”.

“119 (KATEYVHSL; listed as Homo sapiens) [compound 119]”: the Peptide exchange result is “+ (>10% = +)”. Under “120 (TVRPKNAAL; listed as Homo sapiens) [compound 120]” stands “+++ (>50 = +++)”; under “121 (GPFQRAAL; listed as Homo sapiens) [compound 121]”, “+++ (>50 = +++)”. Consider “122 (KPRTPFTTAQLL; listed as Homo sapiens) [compound 122]”, for which the Peptide exchange entry is reported as “++++ (>75% = ++++)”. Consider “123 (RPRLRDLPAL; listed as Homo sapiens) [compound 123]”, for which the Peptide exchange entry is reported as “+++ (>50 = +++)”. “125 (SPAKQFNIY; listed as Homo sapiens) [compound 125]”: the Peptide exchange entry is reported as “++ (>20% = ++)”. Consider “126 (MPREDAHF; listed as Homo sapiens) [compound 126]”, for which the Peptide exchange result is given as “+ (>10% = +)”. Then “127 (KSKQVITLL; listed as Homo sapiens) [compound 127]”, with “+ (>10% = +)”; and “129 (MTLPATTLTL; listed as Homo sapiens) [compound 129]”, with “++ (>20% = ++)”; and “130 (GAYDKARYL; listed as Homo sapiens) [compound 130]”, with “++ (>20% = ++)”.

For the substance “131 (MPFRNIRSIL; listed as Homo sapiens) [compound 131]”, the Peptide exchange result is given as “+++ (>50 = +++)”.

As to “132 (LPRLPVGSLV; listed as Homo sapiens) [compound 132]”, the Peptide exchange result is “++++ (>75% = ++++)”.

“133 (LPELPTTLTF; listed as Homo sapiens) [compound 133]”: the Peptide exchange result is reported as “++ (>20% = ++)”. For “134 (VAAAARLTL; listed as Homo sapiens) [compound 134]”, the Peptide exchange entry is recorded as “+++ (>50 = +++)”. On to “135 (MPRLLRLSL; listed as Homo sapiens) [compound 135]”, for which the Peptide exchange result is “+++ (>50 = +++)”. Then “136 (QPDHAGIFRVF; listed as Homo sapiens) [compound 136]”, with “++++ (>75% = ++++)”; and “139 (LVILQHQAM; listed as Homo sapiens) [compound 139]”, with “+++ (>50 = +++)”; and “140 (TPFPDIHWF; listed as Homo sapiens) [compound 140]”, with “++++ (>75% = ++++)”. In the case of “141 (YGPYGSGSGW; listed as Homo sapiens) [compound 141]”, the Peptide exchange result is “++ (>20% = ++)”. Then “143 (YPMIPPAQL; listed as Homo sapiens) [compound 143]”, with “+++ (>50 = +++)”; and “144 (RPVQGIPTY; listed as Homo sapiens) [compound 144]”, with “+++ (>50 = +++)”. Under “145 (VPAQRLGLLL; listed as Homo sapiens) [compound 145]” stands “+++ (>50 = +++)”; under “146 (SPTRGSEF; listed as Homo sapiens) [compound 146]”, “++++ (>75% = ++++)”; under “147 (HVAQPAVVL; listed as Homo sapiens) [compound 147]”, “+++ (>50 = +++)”. For the substance “149 (SPSSVFTSK; listed as Homo sapiens) [compound 149]”, the Peptide exchange entry is reported as “+++ (>50 = +++)”.

For the substance “150 (APLHGGGSL; listed as Homo sapiens) [compound 150]”, the Peptide exchange result is “+++ (>50 = +++)”. As to “151 (QPTWNTQTRL; listed as Homo sapiens) [compound 151]”, the Peptide exchange entry is reported as “++++ (>75% = ++++)”.

On to “152 (SSASFSSELFRH; listed as Homo sapiens) [compound 152]”, for which the Peptide exchange result is “+++ (>50 = +++)”. Turning to “153 (QPVHSLCSA; listed as Homo sapiens) [compound 153]”, the Peptide exchange entry is reported as “++++ (>75% = ++++)”. Then “154 (RPPPSRRAVL; listed as Homo sapiens) [compound 154]”, with “+++ (>50 = +++)”.

Turning to “156 (GSRPVTGSV; listed as Homo sapiens) [compound 156]”, the Peptide exchange result is on record as “+++ (>50 = +++)”. Take “157 (RPVTGSVC; listed as Homo sapiens) [compound 157]”: the Peptide exchange entry is recorded as “++++ (>75% = ++++)”. Then “158 (SVPVATVEL; listed as Homo sapiens) [compound 158]”, with “++ (>20% = ++)”. On to “160 (IPVSHPVLTF; listed as Homo sapiens) [compound 160]”, for which the Peptide exchange result was “++ (>20% = ++)”. As for “161 (ASKILETSL; listed as Homo sapiens) [compound 161]”, the Peptide exchange entry is reported as “++ (>20% = ++)”. As for “162 (IPIRVDQNGAF; listed as Homo sapiens) [compound 162]”, the Peptide exchange entry is listed as “+++ (>50 = +++)”.

For “164 (RAAGRRLQL; listed as Homo sapiens) [compound 164]”, the Peptide exchange result is listed as “++++ (>75% = ++++)”.

The record behind these values is patent US20220289816A1, “IMMUNOTHERAPY WITH B*07 RESTRICTED PEPTIDES AND COMBINATION OF PEPTIDES AGAINST CANCERS AND RELATED METHODS” (Immatics Biotechnologies GmbH, priority 2018, published 2022).
